{
  "source": "patent US20180273604A1",
  "about": "(ALBERT EINSTEIN COLLEGE OF MEDICINE, published 2018)",
  "binders": {"B1": {"name": "ICOS-L, human, expressed on HEK 293 cells (ligand, UniProt O75144 19-302, looked up)", "chain": "DTQEKEVRAMVGSDVELSCACPEGSRFDLNDVYVYWQTSESKTVVTYHIPQNSSLENVDSRYRNRALMSPAGMLRGDFSLRLFNVTPQDEQKFHCLVLSQSLGFQEVLSVEVTLHVAANFSVPVVSAPHSPSQDELTFTCTSINGYPRPNVYWINKTDNSLLDQALQNDTVFLNMRGLYDVVSVLRIARTPSVNIGCCIENVLLQQNLTVGSQTGNDIGERDKITENPVSTGEKNAATWSILAVLCLLVVVAVAIGWVCRDRCLQHSYAGAWAVSPETELTGHV", "notes": "whole, on cells; Expressed as GFP or mCherry fusion; Library form: ectodomain on the mouse PD-L1 transmembrane segment with GFP; also called Human ICOS-L"}},
  "key": {"[1]": {"biological_target": "T1, tumor necrosis factor receptor 1B (TNFR-1B), human, expressed on HEK 293 cells (human, UniProt P20333 23-461)", "T1 construct": "also called TNFR-1B-mCHERRY; Human TNFR-1B; not shown: C-terminal fluorescent protein (mCherry as query, GFP as library or panel member)", "T1 sequence": "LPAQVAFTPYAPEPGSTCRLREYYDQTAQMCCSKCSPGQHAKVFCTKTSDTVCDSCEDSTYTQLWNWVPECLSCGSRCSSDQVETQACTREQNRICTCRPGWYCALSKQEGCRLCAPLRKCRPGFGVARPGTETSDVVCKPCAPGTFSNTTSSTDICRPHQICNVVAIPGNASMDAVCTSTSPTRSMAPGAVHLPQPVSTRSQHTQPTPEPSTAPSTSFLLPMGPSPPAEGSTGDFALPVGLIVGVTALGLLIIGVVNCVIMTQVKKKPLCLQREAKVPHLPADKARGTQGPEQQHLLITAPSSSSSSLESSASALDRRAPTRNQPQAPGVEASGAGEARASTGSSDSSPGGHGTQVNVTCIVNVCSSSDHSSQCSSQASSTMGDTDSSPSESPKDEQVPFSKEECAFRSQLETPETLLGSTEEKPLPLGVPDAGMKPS", "test": "soluble ICOS-L Fc on transfected cells, flow cytometry"}, "[2]": {"biological_target": "T2, NGFR, human, expressed on cells (human, UniProt P08138 29-427)", "T2 construct": "whole, on cells", "T2 sequence (looked up)": "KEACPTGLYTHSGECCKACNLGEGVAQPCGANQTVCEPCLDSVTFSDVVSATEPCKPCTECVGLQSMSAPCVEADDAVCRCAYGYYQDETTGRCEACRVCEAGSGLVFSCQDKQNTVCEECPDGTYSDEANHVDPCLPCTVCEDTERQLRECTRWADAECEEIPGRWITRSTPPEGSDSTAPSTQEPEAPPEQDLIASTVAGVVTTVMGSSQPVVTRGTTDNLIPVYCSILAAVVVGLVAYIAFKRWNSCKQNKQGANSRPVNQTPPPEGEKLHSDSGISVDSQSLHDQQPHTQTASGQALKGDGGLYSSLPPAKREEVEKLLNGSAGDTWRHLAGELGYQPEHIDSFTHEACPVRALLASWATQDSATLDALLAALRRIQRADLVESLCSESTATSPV", "test": "cell-cell FACS screen, NGFR query cells vs GFP library cells"}, "[3]": {"biological_target": "B1", "test": "cell-cell FACS, mutant-mCherry cells vs ligand-GFP cells"}, "[4]": {"biological_target": "T3, TNFα, cell-surface displayed on HEK 293 cells (Homo sapiens (Human), UniProt P01375 1-233, Expressed as a GFP fusion on HEK 293 cells. GFP is left out of the chain. The native protein is a homotrimer.)", "T3 construct": "also called TNF-alpha; cell surface expressed TNFα", "test": "cell-cell FACS, mutant-mCherry cells vs ligand-GFP cells"}, "TNFR-1B mutant D58A": {"biological_target": "T4, TNFR-1B mutant D58A (human, UniProt P20333 23-461)", "T4 construct": "Point mutant expressed as mCherry fusion in HEK 293 cells; not shown: C-terminal mCherry fusion", "T4 sequence": "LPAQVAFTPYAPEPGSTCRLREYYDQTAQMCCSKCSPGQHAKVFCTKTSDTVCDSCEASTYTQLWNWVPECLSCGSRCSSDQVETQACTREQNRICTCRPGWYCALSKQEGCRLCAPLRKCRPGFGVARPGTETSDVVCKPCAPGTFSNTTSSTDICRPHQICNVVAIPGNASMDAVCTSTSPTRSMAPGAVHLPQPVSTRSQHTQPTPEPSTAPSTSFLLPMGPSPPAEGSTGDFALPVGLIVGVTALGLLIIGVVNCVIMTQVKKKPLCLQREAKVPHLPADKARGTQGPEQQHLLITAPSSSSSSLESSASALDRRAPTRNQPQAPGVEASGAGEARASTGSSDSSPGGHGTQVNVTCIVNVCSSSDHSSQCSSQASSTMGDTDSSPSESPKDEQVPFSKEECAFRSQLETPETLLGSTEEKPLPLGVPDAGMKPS", "test": "cell-cell FACS, mutant-mCherry cells vs ligand-GFP cells"}, "[5]": {"biological_target": "T1, tumor necrosis factor receptor 1B …", "test": "listed as newly discovered in this disclosure (cell-cell FACS screens)"}, "mouse TNFR-1B": {"biological_target": "T5, mouse TNFR-1B (mouse, UniProt P25119 23-258)", "T5 construct": "also called mouse ortholog of TNFR-1B", "T5 sequence (looked up)": "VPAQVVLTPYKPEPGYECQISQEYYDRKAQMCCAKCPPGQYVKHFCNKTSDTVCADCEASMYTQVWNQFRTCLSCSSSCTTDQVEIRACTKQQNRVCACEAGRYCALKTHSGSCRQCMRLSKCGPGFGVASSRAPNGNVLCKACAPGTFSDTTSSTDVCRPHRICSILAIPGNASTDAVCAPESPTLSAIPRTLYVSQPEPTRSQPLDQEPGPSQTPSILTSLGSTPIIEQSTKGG", "test": "mouse constructs tested; assay not described (data not shown)"}},
  "data": [
    {"binder": "ICOS-L Fc-fusion protein (soluble, purified) (Fc fusion, human, UniProt O75144 19-256, looked up, not shown: a dimerising Fc or GST, Expressed in HEK 293 cells, purified by Ni2+-NTA and gel filtration; Used soluble or on protein A microbeads; also called ICOS-L Fc (IgG2a); ICOS-L mIgG2a) DTQEKEVRAMVGSDVELSCACPEGSRFDLNDVYVYWQTSESKTVVTYHIPQNSSLENVDSRYRNRALMSPAGMLRGDFSLRLFNVTPQDEQKFHCLVLSQSLGFQEVLSVEVTLHVAANFSVPVVSAPHSPSQDELTFTCTSINGYPRPNVYWINKTDNSLLDQALQNDTVFLNMRGLYDVVSVLRIARTPSVNIGCCIENVLLQQNLTVGSQTGNDIGERDKITENPVSTGEKNAAT", "values": [
      {"measurement": "binding result", "setting": "[1]", "result": "binds"}
    ]},
    {"binder": "B7-1, human, expressed on cells (ligand, UniProt P33681 35-288, looked up, whole, on cells) VIHVTKEVKEVATLSCGHNVSVEELAQTRIYWQKEKKMVLTMMSGDMNIWPEYKNRTIFDITNNLSIVILALRPSDEGTYECVVLKYEKDAFKREHLAEVTLSVKADFPTPSISDFEIPTSNIRRIICSTSGGFPEPHLSWLENGEELNAINTTVSQDPETELYAVSSKLDFNMTTNHSFMCLIKYGHLRVNQTFNWNTTKQEHFPDNLLPSWAITLISVNGIFVICCLTYCFAPRCRERRRNERLRRESVRPV", "values": [
      {"measurement": "binding result", "setting": "[2]", "result": "binds"}
    ]},
    {"binder": "TNFR-1B mutant K42D (receptor, Point mutant expressed as mCherry fusion in HEK 293 cells; not shown: C-terminal mCherry fusion) LPAQVAFTPYAPEPGSTCRLREYYDQTAQMCCSKCSPGQHADVFCTKTSDTVCDSCEDSTYTQLWNWVPECLSCGSRCSSDQVETQACTREQNRICTCRPGWYCALSKQEGCRLCAPLRKCRPGFGVARPGTETSDVVCKPCAPGTFSNTTSSTDICRPHQICNVVAIPGNASMDAVCTSTSPTRSMAPGAVHLPQPVSTRSQHTQPTPEPSTAPSTSFLLPMGPSPPAEGSTGDFALPVGLIVGVTALGLLIIGVVNCVIMTQVKKKPLCLQREAKVPHLPADKARGTQGPEQQHLLITAPSSSSSSLESSASALDRRAPTRNQPQAPGVEASGAGEARASTGSSDSSPGGHGTQVNVTCIVNVCSSSDHSSQCSSQASSTMGDTDSSPSESPKDEQVPFSKEECAFRSQLETPETLLGSTEEKPLPLGVPDAGMKPS", "values": [
      {"measurement": "binding as percent of wild-type", "setting": "[3]", "result": "~50 % of wild-type"},
      {"measurement": "binding as percent of wild-type", "setting": "[4]", "result": "~50 % of wild-type"}
    ]},
    {"binder": "B1", "values": [
      {"measurement": "binding result", "setting": "TNFR-1B mutant D58A", "result": "binds"},
      {"measurement": "binding result", "setting": "[5]", "result": "binds"}
    ]},
    {"binder": "TNFR-1B mutant T48A (receptor, Point mutant expressed as mCherry fusion in HEK 293 cells; not shown: C-terminal mCherry fusion) LPAQVAFTPYAPEPGSTCRLREYYDQTAQMCCSKCSPGQHAKVFCTKASDTVCDSCEDSTYTQLWNWVPECLSCGSRCSSDQVETQACTREQNRICTCRPGWYCALSKQEGCRLCAPLRKCRPGFGVARPGTETSDVVCKPCAPGTFSNTTSSTDICRPHQICNVVAIPGNASMDAVCTSTSPTRSMAPGAVHLPQPVSTRSQHTQPTPEPSTAPSTSFLLPMGPSPPAEGSTGDFALPVGLIVGVTALGLLIIGVVNCVIMTQVKKKPLCLQREAKVPHLPADKARGTQGPEQQHLLITAPSSSSSSLESSASALDRRAPTRNQPQAPGVEASGAGEARASTGSSDSSPGGHGTQVNVTCIVNVCSSSDHSSQCSSQASSTMGDTDSSPSESPKDEQVPFSKEECAFRSQLETPETLLGSTEEKPLPLGVPDAGMKPS", "values": [
      {"measurement": "binding as percent of wild-type", "setting": "[3]", "result": "~50 % of wild-type"},
      {"measurement": "binding as percent of wild-type", "setting": "[4]", "result": "~50 % of wild-type"}
    ]},
    {"binder": "MadCAM-1, human, expressed on HEK 293 cells (ligand, UniProt Q13477 19-382, looked up, whole, on cells; GFP or mCherry fusion; library form has the ectodomain on the mouse PD-L1 transmembrane segment) QSLQVKPLQVEPPEPVVAVALGASRQLTCRLACADRGASVQWRGLDTSLGAVQSDTGRSVLTVRNASLSAAGTRVCVGSCGGRTFQHTVQLLVYAFPDQLTVSPAALVPGDPEVACTAHKVTPVDPNALSFSLLVGGQELEGAQALGPEVQEEEEEPQGDEDVLFRVTERWRLPPLGTPVPPALYCQATMRLPGLELSHRQAIPVLHSPTSPEPPDTTSPESPDTTSPESPDTTSQEPPDTTSPEPPDKTSPEPAPQQGSTHTPRSPGSTRTRRPEISQAGPTQGEVIPTGSSKPAGDQLPAALWTSSAVLGLLLLALPTYHLWKRCRHLAEDDTHPPASLRLLPQVSAWAGLRGTGQVGISPS", "values": [
      {"measurement": "binding result", "setting": "TNFR-1B mutant D58A", "result": "binds"},
      {"measurement": "binding result", "setting": "[5]", "result": "binds"}
    ]},
    {"binder": "TNFR-1B mutant N171D (receptor, Point mutant expressed as mCherry fusion in HEK 293 cells; not shown: C-terminal mCherry fusion) LPAQVAFTPYAPEPGSTCRLREYYDQTAQMCCSKCSPGQHAKVFCTKTSDTVCDSCEDSTYTQLWNWVPECLSCGSRCSSDQVETQACTREQNRICTCRPGWYCALSKQEGCRLCAPLRKCRPGFGVARPGTETSDVVCKPCAPGTFSNTTSSTDICRPHQICNVVAIPGDASMDAVCTSTSPTRSMAPGAVHLPQPVSTRSQHTQPTPEPSTAPSTSFLLPMGPSPPAEGSTGDFALPVGLIVGVTALGLLIIGVVNCVIMTQVKKKPLCLQREAKVPHLPADKARGTQGPEQQHLLITAPSSSSSSLESSASALDRRAPTRNQPQAPGVEASGAGEARASTGSSDSSPGGHGTQVNVTCIVNVCSSSDHSSQCSSQASSTMGDTDSSPSESPKDEQVPFSKEECAFRSQLETPETLLGSTEEKPLPLGVPDAGMKPS", "values": [
      {"measurement": "binding as percent of wild-type", "setting": "[3]", "result": "~50 % of wild-type"},
      {"measurement": "binding as percent of wild-type", "setting": "[4]", "result": "~50 % of wild-type"}
    ]},
    {"binder": "mouse ICOS-L (ligand, UniProt Q9JHJ8 47-277, looked up, also called mouse ortholog of ICOS-L) ETEVGAMVGSNVVLSCIDPHRRHFNLSGLYVYWQIENPEVSVTYYLPYKSPGINVDSSYKNRGHLSLDSMKQGNFSLYLKNVTPQDTQEFTCRVFMNTATELVKILEEVVRLRVAANFSTPVISTSDSSNPGQERTYTCMSKNGYPEPNLYWINTTDNSLIDTALQNNTVYLNKLGLYDVISTLRLPWTSRGDVLCCVENVALHQNITSISQAESFTGNNTKNPQETHNNE", "values": [
      {"measurement": "binding result", "setting": "mouse TNFR-1B", "result": "no binding"}
    ]}
  ]
}
